Reference: patent US20240352438A1, “MEANS AND METHODS FOR DETOXIFYING OCHRATOXIN A” (DSM Austria GmbH, priority 2021, published 2024)
Substitutions are numbered along the chain they refer to.

B1: 29 (protein)
chain: MDLGIKNGNVFNGKGVVGKVNIYVKDGKIVEISKENKQAKIEIDAKDMFVMPGLIDAHIHLTGIKGGSLLKTMFEKPEYRVLRASKWLEKLLLAGFTTVRDCGETISLALKRGVSEGIINGPRIIAAGKPISQTFGHGELSHDVPLEFSMALSFSEFCDGVESCIRASRKVLRDGADFIKIFATGGVLSQRDRPEHPQLSYEEISAIVNEAEKINTYVAAHAHGDKGARIAVEAGIKTLEHGTLLRDETLKLMRERNVTLTPTLTIQELIYKYGKQIGVDEWGLQKINEVRESVVNVVKKAEEYGVMIITGTDLGFETGLEEIDIGKNWMESVLLVERGGLSTISSLRASTYNSAFAIGINAGAIEVGKDADIIVIDGDPTENIRDLSKVRRVVKNGKLTVEDGKFL
modifications: exemplary polypeptide
B2: 24 (protein)
chain: MELAIRNGIVFNGKEIIGKTNIYVREGKIVEVSREDHSAKMEIDAKDMFVMPGLIDAHIHLSGIKGGSLLKIMFEKPEYRVLRAAKWLEKLLLAGFTTVRDCGETVSLALKRALNDGIIGGPKVIAAGKPITQTFGHGELSHDVPLEFSKTMSFSEFCDGMESCIHAARKVLRDGADFIKIFATGGVLSQRDRPEHPQLSYEEIRAIVNEAEKVNTYVAAHAHGDRGARIAIEAGVKTLEHGTLLKDETLKLMKEKNVTLTPTLTIQELIFKYGKQIGVDEWGLQKITSVRENIANVVRKAKEYGVTIISGTDLGFETGLEEIDMGKNWMETVLLVERGGLSPIEALRASTYNAAMAIGINAGVIEIGKDADIIIINGDPTLNVREISKITHVVKNGKLTVENKSIKG
modifications: exemplary polypeptide
B3: 30 (protein)
chain: B2 chain with I16V, L114V, G120D, R193T, T216S, N293S, D324E, L382Q, V394I
modifications: exemplary polypeptide
B4: 31 (protein)
chain: B2 chain with I16V, L114V, I119V, G120D, R193T, T216S, N293S, D324E, L382Q, V394I
modifications: exemplary polypeptide
B5: 34 (protein)
chain: B2 chain with V394I
modifications: exemplary polypeptide
B6: 33 (protein)
chain: B2 chain with R83S
modifications: exemplary polypeptide
B7: 32 (protein)
chain: B2 chain with I16V, G27E, V32I, G120D, V394I
modifications: exemplary polypeptide
B8: 27 (protein)
chain: MDILIKGGQVFNGKDFIGKANVYIKYGKIVEVSKEVKEAKEEIDARDMFVMPGLIDAHIHLSGIKGGSLMKTMFERPEYRVLRASKWLEKLLLAGFTTVRDCGEYVSLALKRAVQEGTIKGSNIIAAGRPVTQTFGHGEISHDIPLEFSHKVGFSEFCDGTESCIHAARKILRDGSDFIKVFATGGVLSQRDKPENPQLSYDEIKAIVNEAHKVGTYVAAHAHGDAGAKIAVEAGVKTIEHGTLLKDDTLKLMVNKGVSLTPTLTIQEVIYRYGKQIGVDEWGLQKIFEVRERVADVVKKAKDYGVLMISGTDLGFETGLWDIDMGKNWYELVLLVERGGLTPKEALTTATYNSSIALGINSGFIDIGKEGDLVVIDGNPLENIYDIAKVTHVLKAGRVEVRNGKLESK
modifications: exemplary polypeptide
B9: 26 (protein)
chain: MAFDIALKNGNIFNGKEFIGKSNIYINNGKIVKVSKEELDAKQEIDAMDMFVMPGLIDAHMHISGIKGGSLLKLMFERPEYRTIRATKWLEKLLLAGFTTVRDCGDPISISLAKAVKEGIIKGPNVIAAGRPITQTFGHGELSHDIPLEVSETTGFSEICDGTESCIHAARKVLREGSDFIKIFATGGVLSQRDKPENPQLTYDEIKVIVNEAEKVGTYVAAHAHGDKGARIAIEAGIKTLEHGTLLQDETLKLMIEKKVTLTPTLSIQEVIYRHGKEIGVDEWGLEKIAMVRDSISSVVKKAKDYGITIITGTDLGFETGLEDIDIGKNWMEIVLLIEIGGLTPVEALRAATYNSSIAININSGLIDSGKEADLIIINGNPLEDIKDISKVSYVIKDGKIEVEERKIKN
modifications: exemplary polypeptide
B10: 25 (protein)
chain: MFDLGIKNGNVFSGKDNLGKTNIYVNNGKIVKISKENLEVRQEIDAKDMFVMPGLIDSHIHLSGIKGGSLLKIMFEKPEYRILRASKWLEKLLLAGFTTVRDCGDPISISLAKGVKDGIIIGPNIIAAGRPITQTFGHGEISHDIPLEFSEVLGFSEICDGVESCIHSARKVLREGSDFIKIFATGGVLSQRDRPENPQLTYEEIKSIVNEAEKIGTYVAAHAHGDKGARIAIEAGIKTLEHGTMLKDDTMKLMIEKDVSLTPTLTIQEVIYKYGKQIGVDEWGLEKITEVRNSISSVVKKAKEYGIRIITGTDLGFETGLSDIDIGKNWVELTLLVERGGLTPKEALQAATYNSALSLRINSGLIDTDRNADIIIIDGDPEENISDIAKIDHVIKNGNIIVEKGKIINYS
modifications: exemplary polypeptide
B11: 23 (protein)
chain: MQYDVAIKNGNVFTGTEFIGKMNIYISNGKISKVSKEDLNAKQEIDAKDMLVMPGLIDAHMHISGLKGGSLLKIMFEKPEYRALRATKWLEKLLLAGFTTVRDCGEPISISLKRAVNEGYIKGPKIIAAGKPITQTFGHGEFSHDIPLEFSISLGFSEICDGTESCIHAARKVLRDGSDFIKIFATGGVLSQRDRPDMPQLSFDEIRAIVNEAEKAGTYVAAHAHGDKGARIAIEAGIKTLEHGSLLKEDTLKLMLEKNISLTPTLTITEIIYKYGKTIGVDEWGLEKIVEVRENLHKVLRKAKELGITIITGTHMGFETGLEDYDIGKNWTEILLLTEVGGLSNEEALRAATYNSAKALGLNSGLIDEGKDADIIVIDGNPLENIKDVSKVVHVIKQGKLEVLDSKIINNY
modifications: exemplary polypeptide
B12: 28 (protein)
chain: MDISIKGGELFTGKELLGKFNIYIKDKKIVEISKEDKQAEVEVNAKDMFVMPGLIDAHIHLSGVKGGSLLKTMFEKPEYRVLRASKWLERLLLAGFTTVRDCGESISIALKRAVNEKIIKGPKIIAAGRPISQTFGHGELSHDLPLEFSKALSFSEFCDGVESCIHASRKVLREGADFIKIFATGGVLSQRDKPENPQLSYEEIKAIVNEAEKVNTYVAAHAHGDKGARIAIEAGVKTLEHGTLLRDDTLKLMVEKRVSLTPTLTIQELIYKYGKQIGVDEWGLEKINSVRESVAEVVRKAKEYGVLIINGTDLGFETGLDEIDMGKNWMETVLLVERGNLSNVEALRASTYNSAIAIGNDAGIIDIGRPADIIVINGNPSENIRDISKVVHVIKDGSLVVENKRLTDSL
modifications: exemplary polypeptide

experiment: Thermostability assay: residual OTA detoxification activity after 10 min incubation at 45-99° C. (T50); type: physicochemical; conditions: 0.1 mg/mL protein in 20 mM Tris-HCl pH 7.5, residual OTA detoxification activity relative to 4° C. reference aliquot
Description: Stability was determined in terms of thermostability. Notwithstanding, a person having skill in the art is aware that stability towards high temperature (e.g. more than 30° C.) often correlates with stability towards other non-standard conditions such as stability towards acidic or basic pH (e.g. below pH 6.5 or above pH 7.5, respectively), towards elevated salt concentrations, organic solvents or drying.
To determine the kinetic stability of the produced enzymes, thermostability assays were performed. To this end, purified protein samples were diluted to a protein concentration of 0.1 mg/mL in 20 mM Tris-HCl buffer pH 7.5 and aliquots were incubated in a thermocycler for 10 min at either 45, 55, 65, 75, 80, 85, 90, 95 or 99° C. After this incubation, the aliquots were stored at 4° C. until further analysis. A reference aliquot was stored at 4° C. throughout the incubation. Subsequently, all aliquots were assayed for residual OTA detoxification activity using the assay described in Example 3. Residual enzyme activities were calculated relative to the reference aliquot. The temperature range in which 50% of the initial activity was lost after the incubation (T50), in relation to the reference aliquot was determined.

Molecule | T50 (temperature at which 50% of the initial activity was maintained)
B1 | >95 °C
B2 | >95 °C
B3 | >95 °C
B4 | >95 °C
B5 | >95 °C
B6 | >95 °C
B7 | >95 °C
B8 | >95 °C
B9 | >95 °C
B10 | >95 °C
B11 | >95 °C
B12 | >95 °C
